B1: Mitochondrial Dynamics 49, MID49_(126-454) (domain or fragment, human, UniProt Q96C03-1 126-454, looked up)
chain: TLQERLLAFERDRVTIPAAQVALAKQLAGDIALELQAYFRSKFPELPFGAFVPGGPLYDGLQAGAADHVRLLVPLVLEPGLWSLVPGVDTVARDPRCWAVRRTQLEFCPRGSSPWDRFLVGGYLSSRVLLELLRKALAASVNWPAIGSLLGCLIRPSMASEELLLEVQHERLELTVAVLVAVPGVDADDRLLLAWPLEGLAGNLWLQDLYPVEAARLRALDDHDAGTRRRLLLLLCAVCRGCSALGQLGRGHLTQVVLRLGEDNVDWTEEALGERFLQALELLIGSLEQASLPCHFNPSVNLFSSLREEEIDDIGYALYSGLQEPEGLL
B2: Dynamin-Related Protein 1 (DRP1), wild type, full length, isoform 2 (enzyme, human, UniProt O00429-3 1-710, looked up)
chain: MEALIPVINKLQDVFNTVGADIIQLPQIVVVGTQSSGKSSVLESLVGRDLLPRGTGIVTRRPLILQLVHVSQEDKRKTTGEENGVEAEEWGKFLHTKNKLYTDFDEIRQEIENETERISGNNKGVSPEPIHLKIFSPNVVNLTLVDLPGMTKVPVGDQPKDIELQIRELILRFISNPNSIILAVTAANTDMATSEALKISREVDPDGRRTLAVITKLDLMDAGTDAMDVLMGRVIPVKLGIIGVVNRSQLDINNKKSVTDSIRDEYAFLQKKYPSLANRNGTKYLARTLNRLLMHHIRDCLPELKTRINVLAAQYQSLLNSYGEPVDDKSATLLQLITKFATEYCNTIEGTAKYIETSELCGGARICYIFHETFGRTLESVDPLGGLNTIDILTAIRNATGPRPALFVPEVSFELLVKRQIKRLEEPSLRCVELVHEEMQRIIQHCSNYSTQELLRFPKLHDAIVEVVTCLLRKRLPVTNEMVHNLVAIELAYINTKHPDFADACGLMNNNIEEQRRNRLARELPSAVSRDKLIQDSRRETKNVASGGGGVGDGVQEPTTGNWRGMLKTSKAEELLAEEKSKPIPIMPASPQKGHAVNLLDVPVPVARKLSAREQRDCEVIERLIKSYFLIVRKNIQDSVPKAVMHFLVNHVKDTLQSELVGQLYKSSLLDDLLTESEDMAQRRKEAADMLKALQGASQIIAEIRETHLW
B3: DRP1_(G362D), full length, disease-associated mutant (enzyme, human, UniProt O00429-3 1-710, looked up)
chain: B2 chain with G362D

For series [1], the target named is B2. In words: cryo-EM structure.
The series “cryo-EM structure” concerns the molecule itself. Briefly: cryo-EM structure.
The series “SEC” deals with the molecule itself. In words: SEC.

Numbering of substitutions follows the chain as printed. In names and notes the source's numbering stands.

B1: the binding result in series [1] is recorded as “binds”. B2: the binding result in the series “cryo-EM structure” is on record as “binds”. The stoichiometry N is the number of molecules, sites or subunits per partner or assembly. Regarding B3, the “stoichiometry N” value in the series “SEC” was 2.

The record behind these values is publication doi:10.1101/172809 (bioRxiv, 2017).
